The results in this text go back to paper PMC5610305.

Broadly, the stoichiometry N is the number of molecules, sites or subunits per partner or assembly.

Assay [1] deals with Plasmodium falciparum actin I (unlabeled) (Plasmodium falciparum) (UniProt Q8I4X0). As to the kind of experiment: native gel or EMSA; native PAGE of 25 µM polymerized PfActI with and without ultracentrifugation at 434,500 g; running buffer with sample-matched ATP:ADP ratio and 0.1 mM MgCl2; SYPRO Orange, densitometry. On the technique in general: In EMSA bound probe runs differently from free probe, usually more slowly.

Assay [2] shares this target. Description: co-sedimentation; pelleting assay: unlabeled actin polymerized overnight at 22 °C in F-buffer (50 mM KCl, 4 mM MgCl2, 1 mM EGTA), ultracentrifugation at 434,500 g or 100,000 g, 20 °C, 1 h; supernatant and pellet by SDS-PAGE densitometry; also at different actin concentrations.
Assay [3] concerns the target Plasmodium falciparum actin I, pyrene-labeled (Plasmodium falciparum) (UniProt Q8I4X0). As to the kind of experiment: other fluorescence titration; steady-state critical concentration in classical non-polymerizing buffer (G-buffer): pyrene-labeled PfActI, 16 h at 20 °C; two-line fit of pyrene fluorescence.
Assay [4] has the same target. As to the kind of experiment: other fluorescence titration; steady-state critical concentration in F-buffer: pyrene-labeled actin polymerized, diluted to a series of concentrations up to 5 µM, 16 h at 20 °C (methods: overnight at 22 °C); two-line fit of pyrene fluorescence.
For assay [5] the target is unchanged. As to the kind of experiment: dilution-induced depolymerization (pyrene fluorescence); 30% pyrene-labeled actins, 5 µM polymerized overnight, diluted 100-fold to 50 nM in F-buffer; single-phase exponential decay fit.

As for “Plasmodium falciparum actin I (unlabeled) (from UniProt Q8I4X0 1-376) (natural protein)”, in assay [1], the % of total band intensity as dimers amounted to 56.2%, the % of total band intensity as polymers is 43.4%, the monomer concentration left at steady state (from the monomer band) was 0.11 µM and the stoichiometry N was found to be 2. For the same substance, in assay [2], the % of total protein in the pellet (100,000 g) came out at 60% and the % of total protein in the pellet (434,500 g) was 70%.

In assay [3], “Plasmodium falciparum actin I, pyrene-labeled (from UniProt Q8I4X0 1-376) (natural protein)” yielded a Cc (critical concentration, G-buffer, the experiment shown) of 0.04 µM and a Cc (critical concentration, steady state, G-buffer) of 0.06 µM. In assay [4], this substance displayed a Cc (critical concentration, F-buffer, the experiment shown) of 0.13 µM and a Cc (critical concentration, steady state, F-buffer) of 0.11 µM. Besides, in assay [5], the apparent rate constant of depolymerization (single-phase decay) is 0.0093 s⁻¹, the depolymerization rate constant adjusted by filament concentration (100 nm filament length assumed) stood at 0.4 s⁻¹ and the half-time of depolymerization was 74 s.
